Reference: patent US20130101571A9, “ANTIDOTES FOR NITROBENZODIAZEPINES” (Academia Sinica, priority 2011, published 2013)
Numbering of substitutions follows the chain as printed. Numbers in names are those of the source. Entries after “also recorded” stand apart in the source; their conditions may differ.

Columns and labels:
[1] = tested on: nfsb-wt and nfsb-n71s/f124w-transformed E. coli BL21(DE3); experiment: Disk assay for FZ sensitivity (disk diffusion, zones of inhibition); assay type: cell-based; details: E. coli expressing wild-type enzyme or N71S/F124W mutant; dosage up to 400 μg; 24 hrs
Protocol: LB plates were uniformly streaked with 0.1 ml of bacterial cell suspensions having an OD600 value of 0.8. Sterile 7 mm filter paper disks saturated with 7 μl of each chemical, including FZ alone, metronidazole (MTZ) alone, and a combination of FZ and MTZ at a ratio of 1/1 by weight, in the amounts indicated in FIG. 4 were placed on the plates. The cells were incubated for 24 hrs before the zones of inhibition were measured.^22

[2] = NfsB in mice serum by direct competitive ELISA; details: 24 hours after the injection
Protocol: The ELISA assay used in this study was a modified version of a previously described method.^24 Briefly, 96-well microtitre plates were coated with 100 μL of anti-NfsB antibody solution (4 μg/ml in PBS; 13) overnight at 4° C., then washed with PBS containing 0.05% Tween 20 (PBST) in triplicate, then incubated with a blocking buffer containing PBST and 1% BSA. NfsB standards (containing 40 μl sera of untreated mice), or samples (containing 40 μl sera from treated mice collected 1, 3, 6, 12, and 24 hours after the treatment) were placed in the above-noted blocking buffer (60 μL) and added to the wells, which were incubated overnight at 4° C. Enzyme tracer solution (100 μl 6×His mAb/HRP, 1:10,000 in PBS) were added to the wells and incubated at 37° C. for 30 min Subsequently, the wells were washed and TMB substrate solution was added (100 μl). After incubation for 15 min at room temperature, a sulfuric acid solution (2N, 50 μl) was added to stop color development. The absorbance was measured at 450 nm. […] NfsB concentration in the sera samples of the treated groups were calculated based on the standard curve.

FZ-induced hypnosis = experiment: Sleep-time (anti-FZ hypnosis) study in mice; assay type: in vivo, Balb/c mice; details: for effect on sleep-time in treated mice (in words): FZ-treated Balb/c mice, FIG. 5A
Protocol: Male Balb/c mice were purchased from the Animal Center, College of Medicine, National Taiwan University (NTUMC), and were housed in the air-conditioned animal quarters on a 12-h light/dark cycle (temperature 23-25° C.). The animals had free access to water and rodent laboratory chow (Purina Mills Inc.) with the experimental procedures being approved by the Institutional Care and Use Committee at NTUMC.
A sleep-time study in mice was started at the age of seven weeks (body weight ranged from 17.6-19.2 g) following experimental procedures modified from previous studies.^23 Briefly, mice were divided into three groups (at least 4 mice per group) and injected i.p. with 2 mg/kg body weight of FZ from the stock solution (0.4 mg/ml in corn oil). One minute later, mice in Group I, Group II, and Group III were injected i.v. with a vehicle control, 1 mg/ml of wild-type NfsB enzyme (dissolved in 100 mM potassium phosphate buffer, pH 7.4), and 1 mg/ml of the N71S/F124W mutant enzymes (also dissolved in 100 mM potassium phosphate buffer, pH 7.4), respectively, via the tail lateral veins of the FZ-treated mice. The ability of the treated mice to stand on a stainless steel laboratory holder was examined at various time points. A mouse was characterized as losing the reflex ability if it could not stand on the holder for 10 seconds; A mouse was defined as having regained the reflex ability if it could stand on the holder for at least 10 seconds. The time between losing and regaining the reflex ability was defined as sleep-time and recorded for each group.

[3] = 7AFZ production from FZ by purified NfsB proteins (HPLC); assay type: biochemical; details: for 7AFZ formation: FZ 64 μM, purified NfsB protein 10 μg, NADPH 2 mM, 2 h at 37° C., mean±S.D. from three incubations; for production of 7AFZ compared to the wild-type enzyme (in words): anaerobic conditions, FIG. 2B
Protocol: Production of 7AFZ was performed under both aerobic or anaerobic conditions. For anaerobic incubation, nitrogen was inlet into an anaerobic incubator (Biotrace). The reaction mixture consisted of FZ (64 μM), purified NfsB proteins (10 μg), MgCl2 (3.3 mM), and NADPH (2 mM) in 100 mM potassium phosphate buffer (pH 7.4). After incubation for 2 h at 37° C., the reaction was terminated by the addition of a methanol solution (200 μl) containing bromazepam (1 μg/mL), which acted as an internal control. The reaction products were extracted via sonication and analyzed by HPLC at 240 nm with a procedure described previously.^13 The detection limit for 7AFZ or FZ was less than 3-5 ng with 83-86% of recovery.

[4] = Kinetic study monitoring the rate of FZ disappearance (standard nitroreductase assay of E. coli NfsB); assay type: biochemical; details: aerobic; for Km / Vmax: FZ 4-256 μM, linear plot; for Km / Vmax / Specific activity / Specific activity relative to wild type: NADPH 2 mM; for Specific activity / Specific activity relative to wild type: against FZ
Protocol: A kinetic study was carried out by monitoring the rate of FZ disappearance. FZ (4-256 μM) was incubated with purified NfsB proteins (10 μg) under the aerobic conditions described above for 2 h in the presence of NADPH at a fixed concentration of 2 mM.
Data were analyzed and calculated via linear plot (13). The amounts of FZ were obtained via the standard nitroreductase assay of E. coli NfsB in the presence of a fixed concentration of cofactor NADPH (2 mM).

For CN1C(=O)CN=C(c2ccccc2F)c2cc([N+](=O)[O-])ccc21 [FZ, flunitrazepam], the “inhibitory effect (zones of inhibition) on E. coli cells” value [1] was “neither exhibited toxicity nor increased MTZ toxicity; also recorded: did not show any inhibitory effect”.

In the case of Cc1ncc([N+](=O)[O-])n1CCO [Metronidazole, metronidazole], the “inhibitory effect (zones of inhibition) on E. coli cells” value [1] is reported as “dose-dependent”.

B1: Wild type: Wild-type E. coli type I nitroreductase NfsB (NP-415110; SEQ ID NO:1), His-tagged recombinant protein (protein)
chain: MDIISVALKRHSTKAFDASKKLTPEQAEQIKTLLQYSPSSTNSQPWHFIVASTEEGKARVAKSAAGNYVFNERKMLDASHVVVFCAKTAMDDVWLKLVVDQEDADGRFATPEAKAANDKGRKFFADMHRKDLHDDAEWMAKQVYLNVGNFLLGVAALGLDAVPIEGFDAAILDAEFGLKEKGYTSLVVVPVGHHSVEDFNATLPKSRLPQNITLTEV
modifications: His tag; E. coli
For B1, the “enzyme remaining in the serum” value [2] was 30%, the “effect on sleep-time in treated mice (in words)” value (FZ-induced hypnosis) was “significantly reduced the sleep-time” and the 7AFZ formation ([3]; aerobic) was 29.52 ± 6.6 ng. It also gave a 7AFZ formation ([3]; anaerobic) of 51.85 ± 2.19 ng, a Km [4] of 71.4 µM and a Vmax [4] of 1.89 µM/min. The Specific activity [4] was 82.9 nmol/min/mg protein and the “Specific activity relative to wild type” value [4] was 1.0 fold.

B2: N71S/F124W: Double mutant N71S/F124W of E. coli type I nitroreductase NfsB (protein)
chain: B1 chain with N71S, F124W
In the case of B2, the “effect on sleep-time in treated mice (in words)” value (FZ-induced hypnosis) is reported as “significantly reduced the sleep-time”, the “decrease of sleeping time compared to the vehicle group” value (FZ-induced hypnosis; FZ-treated mice) is reported as 50% and the sleeping time (FZ-induced hypnosis; FZ-treated mice, enzyme 1 mg/ml i.v. one minute after FZ) is reported as 138 ± 22 min. For the same molecule, the “7AFZ formation relative to wild-type enzyme” value ([3]; aerobic) was 11.77 fold, the 7AFZ formation ([3]; aerobic) was 347.56 ± 16.59 ng and the “7AFZ formation relative to wild-type enzyme” value ([3]; anaerobic) was 5.6 fold. It also gave a 7AFZ formation ([3]; anaerobic) of 290.52 ± 18.38 ng, a Km [4] of 111 µM and a Vmax [4] of 3.13 µM/min. The “Vmax relative to wild-type enzyme” value [4] was 1.7 fold, the Specific activity [4] was 195.5 nmol/min/mg protein and the “Specific activity relative to wild type” value [4] was 2.4 fold.

B3: F124Y (protein)
chain: B1 chain with F124Y
In the case of B3, the “production of 7AFZ compared to the wild-type enzyme (in words)” value [3] is reported as “higher activity”.

B4: T41L (protein)
chain: B1 chain with T41L
For B4, the “production of 7AFZ compared to the wild-type enzyme (in words)” value [3] was “significantly increased”.

B5: Y68G (protein)
chain: B1 chain with Y68G
With B5 the “production of 7AFZ compared to the wild-type enzyme (in words)” value [3] was “significantly increased”.

B6: N71S (protein)
chain: B1 chain with N71S
In the case of B6, the “7AFZ formation relative to wild-type enzyme” value ([3]; anaerobic) is reported as 2.4 fold, the “production of 7AFZ compared to the wild-type enzyme (in words)” value [3] is reported as “significantly increased” and the 7AFZ formation ([3]; anaerobic) is reported as 126 ± 2.06 ng.

B7: F124H (protein)
chain: B1 chain with F124H
For B7, the “production of 7AFZ compared to the wild-type enzyme (in words)” value [3] was “significantly increased”.

B8: F124W (protein)
chain: B1 chain with F124W
In the case of B8, the “7AFZ formation relative to wild-type enzyme” value ([3]; anaerobic) is reported as 2.7 fold, the “production of 7AFZ compared to the wild-type enzyme (in words)” value [3] is reported as “significantly increased” and the 7AFZ formation ([3]; anaerobic) is reported as 141.88 ± 5.28 ng.

B9: S40G (protein)
chain: B1 chain with S40G
For B9, the “production of 7AFZ compared to the wild-type enzyme (in words)” value [3] was “higher activity”.

B10: F70H (protein)
chain: B1 chain with F70H
In the case of B10, the “production of 7AFZ compared to the wild-type enzyme (in words)” value [3] is reported as “higher activity”.

B11: F70Y (protein)
chain: B1 chain with F70Y
With B11 the “production of 7AFZ compared to the wild-type enzyme (in words)” value [3] was “higher activity”.
